Results: the DeepSol protein solubility set

Test: soluble on expression in E. coli; label from the status in PepcDB or PDB records

Sequence | soluble on expression in E. coli
MSIIFAKLLLIILSYTHMKEKARNVYMVAGGVTKFAKASPEMDFRLRVKKAFDYAMNDAGLTLADIDGSVASYFSDHFQRQLMSGIMVQDYLGLVPKPSKRIEGGGATGGLAFQAGYEEIASGRMDTVAVYGFETMSHVNTWKGNEFIALASDTNFDYPIGGFYTGYYAMMAVRHMYEFGTTVEQLAKVSVKNHGNALHNPYAQSPMKLTVEDVRNAPMVSYPLTRLDVCAMSDGAAVAILASEDKAFEITDHPVLIKGIGTGTDSMRLADRPFGDVPLLPNEKPSDYKDLKYPGVHSFRAGRMAAKEAYEMAGITDPLNELDLIELHDAYTSSEIQTYEDLGLCKYGEGGQFIDEGKPELHGKIPVNPSGGLLAAGHPVGATGIMQAVFMFWQLQHTIKKHFHDDYLQVPNAKRGLIHSHAGTGTYVTVTIMEAAK | not soluble
MSILAEPKRKQKISIDPQNLTWKNDDQKLSKKLMEKMGWSEGDGLGRNRQGNADSVKLKANTSGRGLGADKMADYDSTWISHHDDFADLLAALNKNKEQEPEQTEEEKNAAAEKISIELKSKSIRRRIHYQKFTRAKDTSNYSDSHKKGILGYGRLKSDNAEEKIEEKTENSSVKSDSSDSQADSQEKKEGNNTVSTLSVGDYFAAKMAALKAKREAAAANQTEVKMEIKTEVEEEESDEEKARRKAEKKERKRLRREQRDKEETLETVETILEVKQEVKEEIIDEEFDEAERKRLKKEKKRLKRLREQQQPENEGAEGGEADEEEIPRKRKKHTEDEH | not soluble
MSILDLTKISKDSTKLQNFVKFERVKTGGLDVYMSEYSWNTKEAGTMSICDVSENTSLDYRSNHQQLLKSWISSTEKIAQLFPTTLRTFQVTPPMIAAILDLETAIPKTCDVLIIQNYVPAEMDRYQESVDQFMEKCHIREGVVLHHEVYTNSPKMFQLDYLSVTHSDWMVPSDLEEMENKIVYLDKSDFYDSDMNQFLRELKSGSSHSRLQILSIQGNSWQNYWDPSDVLEGLNAELWNQTERNQHYFLNAEHRKNFKKIADHFYPDQEDGFGAELEHGVDLSEAFDFLKNDGTRVSVRFDELILQVFVWPNEKPSRKRKAQEQGSIAKRFC | not soluble
MSIQLNGINCFYGAHQALFDITLDCPEGETLVLLGPSGAGKSSLLRVLNLLEMPRSGTLTIAGNHFDFTKTPSDKAIRELRQNVGMVFQQYNLWPHLTVVQNLIEAPCRVLGLTKDQALARAEKLLERLRLKPYSDRYPLHLSGGQQQRVAIARALMMEPQVLLFDEPTAALDPEITAQIVSIIHELAETNITQVIVTHEVEVARKTASRVIYMENGHIVEHGDAGCFAHPQTEAFKNYLSH | not soluble
MSIRSWPAAERPRERLLELGAASLSDAELLAIFLRTGVAGKSAVDLARHLLNQFDGLRSLLDADQPAFTAQLGLGPAKFAQLQAVMEMARRHMAESLRRDSALENPAQVRNYLKAQLRHEPHEVFACLFLDNKHRVMTFEILFRGTINASYVHPRQVVKRALAHNAASLILCHNHPSGITTPSRSDIDLTKRLKEALKLVDVHVLDHVIVGDGEPLSMVEKGLM | not soluble
MSISKDSRIAIIGAGPAGLAAGMYLEQAGFHDYTILERTDHVGGKCHSPNYHGRRYEMGAIMGVPSYDTIQEIMDRTGDKVDGPKLRREFLHEDGEIYVPEKDPVRGPQVMAAVQKLGQLLATKYQGYDANGHYNKVHEDLMLPFDEFLALNGCEAARDLWINPFTAFGYGHFDNVPAAYVLKYLDFVTMMSFAKGDLWTWADGTQAMFEHLNATLEHPAERNVDITRITREDGKVHIHTTDWDRESDVLVLTVPLEKFLDYSDADDDEREYFSKIIHQQYMVDACLVKEYPTISGYVPDNMRPERLGHVMVYYHRWADDPHQIITTYLLRNHPDYADKTQEECRQMVLDDMETFGHPVEKIIEEQTWYYFPHVSSEDYKAGWYEKVEGMQGRRNTFYAGEIMSFGNFDEVCHYSKDLVTRFFV | soluble
MSIYLTAMKNYLEQQNSLNSSKPKALILVAGATGGAQEGFQALERLRESYEIIVVASQAALDLYGEENLKSLTGTAKIYQGKEFKIYDFLKVVTIVFLPVVSSNLVGKLAHGIYDEPLASLIFHAKLAGKPVIGVVDGALPDGDGFKSRGFTNPPPGLVKLINENIEKLRAQEIYLYKGKTILEKLSPYLGPQTAETSVVSSKTGVTLNKRVITREDLLELANQTITVSQKTIITDLAREYAVQNNIKINFAE | not soluble
MSKDTKQEDNAPTPVTTTPMALNPKTVEKTMFVNKEVLPKMKKIDPEEPGHLPLNEKFMKRWLIEGLIGKGGYGEIYLALDVVRGEEVAIKVEPKKRRGKLAKRMILEQHVLAKMQGKPHVPMIYGSGHAEKYNFIIMQILSINVGDIKKSSPNKKLSQCSVGRIIHQVIAALQDLHETGYVHRDVKPANMCFGIFPHSRHTLILLDFGLVRRYKMESGEWREPRLRAGFRGTTRYVSIRVHRRCEQSPYDDLVSVMYTAYELLAGELPWKHLEKSEEVVQLKEVMTENGINPELFQGDKSVLIDFFKQVSEMDPMKEPCYEKLIECIKVLYAPKVLTDPYEWEESSKGQDEVSEENTNSK | soluble
MSKENIVTRENTAVSENAVSEPTVNNDVGASATNSVTHPAFTLNVRPDNIGIITIDVVGDKVNTLKAEFADQIATILQQAHALPKLQGLVIVSGKPDSFIAGADITMIAACRTAHDARVLAQKGQSILAQIAAFPVPVVAAIHGACLGGGLELALACHSRICSLDDKTVLGLPEVQLGLLPGSGGTQRLPRLVGVSKALDMILTGKQIRPRQALKMGLVDDVVPRDILLDVAIQRAKAGWLNRRALPWQERLLSGPLGKALLFRIVRKKTLAKTRGHYPAAERIIDVVRKGLDQGGPSGYEAEARAFGELAMSPQSAALRSLFFATTSLKKETGSAATARAIHRVGVLGGGLMGGGIANVTATRAGLPVRIKDINPQGINQALKYTWDALGKRVRSKRMRPTEQQRQMMLISGSTDYRGFERVDIVVEAVFEDLSLKQQMVADIERFGAAHTIFASNTSSLPISQIAALAQRPEQVIGLHYFSPVDKMPLVEVIPHEKTSEETIATTVALARKQGKTAIVVADRAGFYVNRILAPYINEAARCLLDGEPIESVDNALVDFGFPVGPMMLLDEVGIDVATKIMPILVEQLGPRFAAPPSFDVILKDGRKGRKNGRGFYLYSNPTKNSSPTKNGNSPAKRNSFKWRKNKVKPVDASIYTLLGVTPKAHLGAGVITQRCTMLMLNEAVRCLDESIIRNPRDGDIGAVFGIGFPPFLGGPFRYLDSLGADKVVQALRLLVQQYGERFEPCQRLVTMAEQQQQFYPVDANIDEVTDVAS | not soluble
MSKHVNWSGVFPAVTTQFNADFSVNLEETHTVISNLVRDGVSGLVVCGSVGENTSLTIEEKMAVTEVAKDASGGRVPVICGIAEFTSAGAAKVAKAVERVGVDGIMVMPALVYSSKPHETAEHFRSVASGTDLPVMVYNNPPIYRNDVTPDILVSLADCENIVCFKDSSGDTRRFIDVRNQVGERFILFAGLDDVVLESVAVGAQGWISGMSNVFPKEGETIFRLARAGRFAEAMPIYEWLMPILHLDARPDLVQCIKLCEQLAGRGSALTRPPRLALRGADREHVERIMAKALASRPALPDVGL | not soluble
MSKIIGSDRVKRGMAEMQKGGVIMDVVNAEQARIAEEAGAVAVMALERVPSDIRAAGGVARMANPKIVEEVMNAVSIPVMAKARIGHITEARVLEAMGVDYIDESEVLTPADEEYHLRKDQFTVPFVCGCRNLGEAARRIGEGAAMLRTKGEPGTGNIVEAVRHMRQVNSEVSRLTVMNDDEIMTFAKDIGAPYEILKQIKDNGRLPVVNFAAGGVATPQDAALMMELGADGVFVGSGIFKSEDPEKFAKAIVQATTHYQDYELIGRLASELGTAMKGLDINQLSLEERMQERGWMAGDPLEHHHHHH | not soluble
MSKIKIAIIGNGMVGHRFIEDLLDKADKDQFDITVFCEEPRIAYDRVHLSSYFSHHTAEELSLVREGFYEKQGVKVLVGERAITINRAEKVIHSNSGRSLYYDKLVMATGSYPWIPPIKGSEGQDCFVYRTIEDLNAIEACTRRSKRGAVIGGGLLGLEAAGALKSLGVETHVIEFAPVLMAEQLDPMGGDQLRQKIERMGVRVHTGKNTQEIVHSGQNSRKTMLFADGTQLEVDFIVFSTGIRPQDKLANQCGLATARRGGIAINDYCQTSDPDVYAIGECASWQERTFGLVAPGYKMAQVAADHLLGRENAFLGADMSAKLKLLGVDVGGIGDAHGRTEGARSYVYLDESKEIYKRLVVSADNKTLLGAVLVGDTTDYGNLLQLALNNITLPENPDSLILPAHAGNKPTIGVDSLPDSAQICSCFDVTKGDIIRAIGQGCQTVAALKSATKAGTGCGGCIPLVTQVLNAELSKQGIEVNNHLCEHFAYSRQELYHLIRVEGIKTFTELREKYGKGYGCEVCKPTVGSLLASCWNEYVLEPQHTPLQDTNDNFLGNIQKDGTYSIIPRSPGGEITPDGLLVVGQIAKEYNLYTKLTGSQRIGMFGAQKDDLPAIWARLIDAGFETGHAYAKALRMAKTCVGSTWCRFGVGDSVGFGVALEHRYKGIRAPHKIKFGISGCTRECAEAQGKDVGIIATENGWNLYVCGNGGMKPRHADLLAADLDEETLMRYLDRFMMFYIRTADKLQRTSVWLESLEGGIRYLQLVILEDKLGINDQLEAEIARLRDKVACEWKATVENPAAQVRFAHFINSSLRDPNVQVVREREQHRPARPDERIPVRVLELEDNA | not soluble
MSKKIILITGASSGFGRLTAEALAGAGHRVYASMRDIVGRNASNVEAIAGFARDNDVDLRTLELDVQSQVSVDRAIDQIIGEDGRIDVLIHNAGHMVFGPAEAFTPEQFAELYDINVLSTQRVNRAALPHMRRQKHGLLIWISSSSSAGGTPPYLAPYFAAKAAMDAIAVQYARELSRWGIETSIIVPGAFTSGTNHFAHSGVPDDHARQAEYEAGPNAGLGEEIKKAFAAIVPPDADVSLVADAIVRVVGTASGKRPFRVHVDPAEDGADVGFSVLDRLRAEMLHRVGLSDLLKPRALA | soluble
MSKKIRNTEVDHLFDAILTLENKEECYTFFEDVCTVNELLSISQRYEVAKMLREGKTYLDISNATGASTATISRVNRSLNYGNDGYDMVLERVLKKDE | not soluble
MSKLELLPAVDVRDGQAVRLVHGESGTETSYGSPLEAALAWQRSGAEWLHLVDLDAAFGTGDNRALIAEVAQAMDIKVELSGGIRDDDTLAAALATGCTRVNLGTAALETPEWVAKVIAEHGDKIAVGLDVRGTTLRGRGWTRDGGDLYETLDRLNKEGCARYVVTDIAKDGTLQGPNLELLKNVCAATDRPVVASGGVSSLDDLRAIAGLVPAGVEGAIVGKALYAKAFTLEEALEATSLEPG | soluble
MSKPIEIEIRRAPVLGSSMAYRETGAQDAPVVLFLHGNPTSSHIWRNILPLVSPVAHCIAPDLIGFGQSGKPDIAYRFFDHVRYLDAFIEQRGVTSAYLVAQDWGTALAFHLAARRPDFVRGLAFMEFIRPMPTWQDFHHTEVAEEQDHAEAARAVFRKFRTPGEGEAMILEANAFVERVLPGGIVRKLGDEEMAPYRTPFPTPESRRPVLAFPRELPIAGEPADVYEALQSAHAALAASSYPKLLFTGEPGALVSPEFAERFAASLTRCALIRLGAGLHYLQEDHADAIGRSVAGWIAGIEAVRPQLAAVD | soluble
MSKRNTQLRRHAISNMVNELGEVSVDELAQKFETSEVTIRKDLASLEKNGQLLRRYGGAIAIPTEVIHEELSSNVSTRKLSLAKAAASLIRDHNRIVIDSGSTTAALIQQLNDKRGLVVMTNSLHVANALNELESEPTLLMTGGTWDTHSESFQGKVAESVLRAYDFDQLFIGADGIDLERGTTTFNELVGLSKVMAEVSREVIVMIESEKIGRKIPNLELAWHQIDVLVTDADIQPEHKVQIEQHGVKVICALEHHHHHH | soluble
